Reference: paper PMC7455749, “A leap in quantum efficiency through light harvesting in photoreceptor UVR8” (Nature Communications, 2020)

B1: UVR8 mutant 6Wd + 3Wp (all four tryptophans of the 4Wc pyramid center changed to phenylalanine, on the W400F template) (receptor, Arabidopsis thaliana, UniProt Q9FN03 1-440, looked up)
chain: MAEDMAADEVTAPPRKVLIISAGASHSVALLSGDIVCSWGRGEDGQLGHGDAEDRPSPTQLSALDGHQIVSVTCGADHTVAYSQSGMEVYSWGFGDFGRLGHGNSSDLFTPLPIKALHGIRIKQIACGDSHCLAVTMEGEVQSWGRNQNGQLGLGDTEDSLVPQKIQAFEGIRIKMVAAGAEHTAAVTEDGDLYGWGWGRYGNLGLGDRTDRLVPERVTSTGGEKMSMVACGFRHTISVSYSGALYTYGWSKYGQLGHGDLEDHLIPHKLEALSNSFISQISGGFRHTMALTSDGKLYGWGWNKFGQVGVGNNLDQCSPVQVRFPDDQKVVQVSCGFRHTLAVTERNNVFAWGRGTNGQLGIGESVDRNFPKIIEALSVDGASGQHIESSNIDPSSGKSFVSPAERYAVVPDETGLTDGSSKGNGGDISVPQTDVKRVRI
notes: UVR8, Arabidopsis thaliana; W400F template
B2: Arabidopsis thaliana UVR8 (UV … LOCUS 8) W400F, redefined as wild type (WT) (receptor, UniProt Q9FN03 1-440, looked up)
chain: MAEDMAADEVTAPPRKVLIISAGASHSVALLSGDIVCSWGRGEDGQLGHGDAEDRPSPTQLSALDGHQIVSVTCGADHTVAYSQSGMEVYSWGWGDFGRLGHGNSSDLFTPLPIKALHGIRIKQIACGDSHCLAVTMEGEVQSWGRNQNGQLGLGDTEDSLVPQKIQAFEGIRIKMVAAGAEHTAAVTEDGDLYGWGWGRYGNLGLGDRTDRLVPERVTSTGGEKMSMVACGWRHTISVSYSGALYTYGWSKYGQLGHGDLEDHLIPHKLEALSNSFISQISGGWRHTMALTSDGKLYGWGWNKFGQVGVGNNLDQCSPVQVRFPDDQKVVQVSCGWRHTLAVTERNNVFAWGRGTNGQLGIGESVDRNFPKIIEALSVDGASGQHIESSNIDPSSGKSFVSPAERYAVVPDETGLTDGSSKGNGGDISVPQTDVKRVRI
notes: UVR8, Arabidopsis thaliana; the construct holds residue 400 (W400F); also called UVR8 WT

Columns and labels:
[1] = target: the molecule itself; assay: not stated; oligomeric state of the UVR8 mutants without UV-B; method not given; UVR8 lysis buffer (150 mM NaCl, 25 mM Tris, pH 8.0), room temperature
[2] = target: the molecule itself; assay: SEC; Superdex200 size column run after the sub-nanosecond TCSPC measurements (290 nm pulsed LED, 10 uM samples); dimer to monomers

| Protein | stoichiometry N [1] | binding result [2] |
| --- | --- | --- |
| B1 | 2 |  |
| B2 |  | binds |
